Experimental data published in patent US5716934A, “Eck receptor ligands” (Amgen Inc., priority 1995, dated 1998).

Assays:
colon crypt cells = experiment: Colon crypt assay; assay type: cell-based, mouse; conditions: bFGF 60 ng/ml, EBP 500 ng/ml
Protocol: Colons from five (BDF) mice were removed and crypts isolated using a non enzymatic (EDTA) extraction method. Briefly, colons are washed and allowed to sit for 20 min. in a solution of PBS containing 0.04% sodium hypochlorite. Crypts are isolated by incubating the tissue for 1 hour at 37° C. in a solution of PBS containing 3 mM EDTA and 0.5 mM DTT. Crypts are then subjected to pancreatin digestion (0.2% in PBS) for 90 min. at 37° C. in order to obtain a single cell suspension. Cells are washed in PBS, counted and viability determined by trypan blue exclusion (85% in this experiment). Cells are then plated in a top layer of 0.37% Sigma low melt agar onto a bottom layer of 0.5% agar. The RPMI media used in the agar includes the presence of 1×ITS (insulin, transferrin, and selenium, Gibco). Incubations were done in the presence of 1% fetal calf serum (FCS) and the indicated growth factors at the following concentration: TGFα, 50 ng/ml; bFGF, 60 ng/ml; EBP, 500 ng/ml. Control incubations lacked growth factors and/or FCS. Each of the various culture conditions was performed in triplicate and scored every several days.

[1] = system: bone marrow suspensions from BDF mice; experiment: Murine bone marrow colony formation (hematopoiesis); assay type: cell-based, mouse
Protocol: Unfractionated bone marrow suspensions from BDF mice were plated into serum free culture medium (Iscove's modified Dulbecco's medium) in 0.3% agarose and incubated at 37° C., 5% CO2 for ten days at a cell concentration of 1×10^5 /ml in 96 well plates. Total volume per […] was 50 μl . EBP and other growth factors were added in the amounts indicated and colonies were scored at the tenth day of incubation.

[2] = system: extracellular domain of the kit receptor; experiment: BIAcore binding to surfaces activated with kit receptor extracellular domain
Description: SDS-PAGE analysis of the fractions from this column confirmed that EBP was co-eluted with the receptor binding activity.

EGF receptor = EGF receptor phosphorylation in LIM 2405 cells treated with EBP; assay type: cell-based, human
[3] = system: immobilized soluble extracellular domain of eck; experiment: Stability of eck binding activity of formulated EBP (BIAcore); assay type: physicochemical, human
Protocol: FIG. 7. Binding of CHO-derived EBP in various detergent formulations to immobilized eck receptor as measured by BIAcore. Purified EBP was diluted to 100 μg/ml in PBS in the presence or absence of detergent and incubated for 2 hrs. at 3° C. Protein samples were diluted to the concentrations indicated in the figure and tested for eck receptor binding.
Measuring the ability of EBP to bind to the immobilized soluble extracellular domain of eck using BIAcore, it was determined that dilute solutions of purified EBP rapidly lost the ability to bind to the eck receptor unless formulated with a protective agent such as a detergent. Recombinant CHO EBP diluted into PBS to 100 μg/ml and incubated for 2 hours at […] lost approximately 50% of its eck binding activity. […] (see FIG. 7).

hepatocytes = experiment: 3H-thymidine incorporation in primary hepatocyte cultures; assay type: cell-based; conditions: EBP at 20 ng/ml, aFGF at 20 ng/ml, 24 to 48 hours, serum-free
Protocol: Hepatocytes were isolated by the in situ two step collagenase perfusion technique described by Seglen (Methods in Toxicol., Vol. 1A, 231-243 (1993). Briefly, the perfused livers were dispersed in ice cold Hank's buffer, filtered through a nylon mesh, and hepatocytes separated from nonparenchymal cells by repeated centrifugation at 50×g. The hepatocytes were determined to be greater than 85% viable by trypan blue exclusion. The hepatocytes were cultured on plates coated with rat tail collagen and plated in Williams E containing 5% FCS, 10^-7 M insulin, 10^-8 M dexamethason, glutamine, penicillin and streptomycin.
Cells were allowed to attach for 3-4 hours in serum containing media and then transferred to serum-free media. The appropriate concentrations of EBP or other growth factors were added and the cells were incubated for 24 to 48 hours in the presence of ^3 H-thymidine. After incubation, the extent of ^3 H-thymidine incorporation into cells was determined. The growth factors tested were keratinocyte growth factor (KGF) at 10 ng/ml, acidic FGF (aFGF) at 20 ng/ml, and EBP at 20 ng/ml. […] In this particular experiment, the serum free value was unusually high (about 3-fold).

B1: EBP: eck receptor binding protein, polypeptide ligand of the eck receptor (B61 gene product, SEQ. ID. NO. 1); source form not specified at place (protein)
chain: MEFLWAPLLGLCCSLAAADRHTVFWNSSNPKFRNEDYTIHVQLNDYVDIICPHYEDHSVADAAMEQYILYLVEHEEYQLCQPQSKDQVRWQCNRPSAKHGPEKLSEKFQRFTPFTLGKEFKEGHSYYYISKPIHQHEDRCLRLKVTVSGKITHSPQAHVNPQEKRLAADDPEVRVLHSIGHSAAPRLFPLAWTVLLLPLLLLQTP
**Q.** Which “colon crypt cell clusters, overall observation” value (colon crypt cells) does the source give for B1 here?
**A.** occasional large clusters

**Q.** What about the “stimulation of CFU-M or BFU-E/CFU-E” value ([1]; EBP alone) of the same molecule?
**A.** no stimulation

**Q.** What about the “potentiation of murine IL-3 dependent CFU-C formation compared to IL-3 alone” value ([1]; EBP at 1 μg/ml with murine IL-3, colonies scored day 10) of the same molecule?
**A.** about 2 fold

**Q.** What about the “binding to BIAcore surfaces activated with the extracellular domain of the kit receptor” value [2] of the same molecule?
**A.** did not bind

**Q.** What about the “phosphorylation of the EGF receptor” value (EGF receptor) of the same molecule?
**A.** does not result in spurious phosphorylation

**Q.** What about the “loss of eck binding activity when formulated in detergent” value ([3]; 1 mM CHAPS, 0.1% NP-40, 0.1% tween 20, 0.1% triton-X 100, or 0.1% tween 80) of the same molecule?
**A.** loss of activity can be avoided

**Q.** What about the “stability of eck binding activity” value ([3]; 2-5 mg/ml in detergent solutions, 3° C.) of the same molecule?
**A.** stable for at least one week

**Q.** And the “stability of eck binding activity” value ([3]; 10-500 μg/ml, stored at -20° C. or multiple freeze thaw cycles)?
**A.** will lose activity

**Q.** What about the “loss of eck binding activity when incubated with protein carriers” value ([3]; diluted EBP with carriers such as fetal calf serum) of the same molecule?
**A.** can also be avoided

**Q.** And the “amount of 3H-thymidine incorporation stimulated” value (hepatocytes)?
**A.** about the same as that induced by aFGF
